Test results reported in patent US12679878B2, “CRF2 receptor agonists and their use in therapy” (SANOFI, priority 2020, dated 2026).
Starred links: 1 amine or outer side, 2 acyl side, 3 side chain; linkers in the order of their positions; H or OH if unused. Non-standard residues stand in square brackets, D forms with d. Groups on a side chain read outwards from the residue. No end group written: not given here. *: point of attachment. C18 diacid = O=C(O)CCCCCCCCCCCCCCCCC(=O)*; γGlu = O=C(O)[C@H](CCC(=O)[*:2])N[*:1]; AEEA = NCCOCCOCC(=O)O; Aib = CC(C)(N)C(=O)O

T1: CRF1R receptor (anti-target) (UniProt P34998 24-415, limits assumed)
T1 sequence (looked up): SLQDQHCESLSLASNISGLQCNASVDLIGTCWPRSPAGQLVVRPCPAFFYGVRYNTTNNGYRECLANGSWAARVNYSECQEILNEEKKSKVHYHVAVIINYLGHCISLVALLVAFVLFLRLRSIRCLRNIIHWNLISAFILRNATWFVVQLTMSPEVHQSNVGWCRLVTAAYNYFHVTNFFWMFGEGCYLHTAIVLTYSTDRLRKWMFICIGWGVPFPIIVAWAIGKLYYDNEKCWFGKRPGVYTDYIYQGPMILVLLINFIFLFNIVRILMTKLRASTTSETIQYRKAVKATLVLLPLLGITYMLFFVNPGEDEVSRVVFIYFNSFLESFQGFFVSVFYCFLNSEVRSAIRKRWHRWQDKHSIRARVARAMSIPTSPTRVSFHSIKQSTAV

B1: peptide of SEQ ID NO: 122 (peptide)
peptide: IVLSLDVPIKLK([AEEA-AEEA-γGlu-C18 diacid])QILLKQERQKKQRQQAEKNKQILAQV-NH2
modifications: N-terminus assumed
SMILES: CC[C@H](C)[C@H](N)C(=O)N[C@H](C(=O)N[C@@H](CC(C)C)C(=O)N[C@@H](CO)C(=O)N[C@@H](CC(C)C)C(=O)N[C@@H](CC(=O)O)C(=O)N[C@H](C(=O)N1CCC[C@H]1C(=O)N[C@H](C(=O)N[C@@H](CCCCN)C(=O)N[C@@H](CC(C)C)C(=O)N[C@@H](CCCCNC(=O)COCCOCCNC(=O)COCCOCCNC(=O)CC[C@H](NC(=O)CCCCCCCCCCCCCCCCC(=O)O)C(=O)O)C(=O)N[C@@H](CCC(N)=O)C(=O)N[C@H](C(=O)N[C@@H](CC(C)C)C(=O)N[C@@H](CC(C)C)C(=O)N[C@@H](CCCCN)C(=O)N[C@@H](CCC(N)=O)C(=O)N[C@@H](CCC(=O)O)C(=O)N[C@@H](CCCNC(=N)N)C(=O)N[C@@H](CCC(N)=O)C(=O)N[C@@H](CCCCN)C(=O)N[C@@H](CCCCN)C(=O)N[C@@H](CCC(N)=O)C(=O)N[C@@H](CCCNC(=N)N)C(=O)N[C@@H](CCC(N)=O)C(=O)N[C@@H](CCC(N)=O)C(=O)N[C@@H](C)C(=O)N[C@@H](CCC(=O)O)C(=O)N[C@@H](CCCCN)C(=O)N[C@@H](CC(N)=O)C(=O)N[C@@H](CCCCN)C(=O)N[C@@H](CCC(N)=O)C(=O)N[C@H](C(=O)N[C@@H](CC(C)C)C(=O)N[C@@H](C)C(=O)N[C@@H](CCC(N)=O)C(=O)N[C@H](C(N)=O)C(C)C)[C@@H](C)CC)[C@@H](C)CC)[C@@H](C)CC)C(C)C)C(C)C
B2: peptide of SEQ ID NO: 121 (peptide)
peptide: IVLSLDVPIKLK([AEEA-AEEA-γGlu-C18 diacid])QILLKQERQKKQREKAEKNKQILAQV-NH2
modifications: N-terminus assumed
SMILES: CC[C@H](C)[C@H](N)C(=O)N[C@H](C(=O)N[C@@H](CC(C)C)C(=O)N[C@@H](CO)C(=O)N[C@@H](CC(C)C)C(=O)N[C@@H](CC(=O)O)C(=O)N[C@H](C(=O)N1CCC[C@H]1C(=O)N[C@H](C(=O)N[C@@H](CCCCN)C(=O)N[C@@H](CC(C)C)C(=O)N[C@@H](CCCCNC(=O)COCCOCCNC(=O)COCCOCCNC(=O)CC[C@H](NC(=O)CCCCCCCCCCCCCCCCC(=O)O)C(=O)O)C(=O)N[C@@H](CCC(N)=O)C(=O)N[C@H](C(=O)N[C@@H](CC(C)C)C(=O)N[C@@H](CC(C)C)C(=O)N[C@@H](CCCCN)C(=O)N[C@@H](CCC(N)=O)C(=O)N[C@@H](CCC(=O)O)C(=O)N[C@@H](CCCNC(=N)N)C(=O)N[C@@H](CCC(N)=O)C(=O)N[C@@H](CCCCN)C(=O)N[C@@H](CCCCN)C(=O)N[C@@H](CCC(N)=O)C(=O)N[C@@H](CCCNC(=N)N)C(=O)N[C@@H](CCC(=O)O)C(=O)N[C@@H](CCCCN)C(=O)N[C@@H](C)C(=O)N[C@@H](CCC(=O)O)C(=O)N[C@@H](CCCCN)C(=O)N[C@@H](CC(N)=O)C(=O)N[C@@H](CCCCN)C(=O)N[C@@H](CCC(N)=O)C(=O)N[C@H](C(=O)N[C@@H](CC(C)C)C(=O)N[C@@H](C)C(=O)N[C@@H](CCC(N)=O)C(=O)N[C@H](C(N)=O)C(C)C)[C@@H](C)CC)[C@@H](C)CC)[C@@H](C)CC)C(C)C)C(C)C
B3: peptide of SEQ ID NO: 124 (peptide)
peptide: IVLSLDVPIKLK([AEEA-AEEA-γGlu-C18 diacid])QILLKQARQK[Aib]QRAQAEKNKRILERV-NH2
modifications: N-terminus assumed
SMILES: CC[C@H](C)[C@H](N)C(=O)N[C@H](C(=O)N[C@@H](CC(C)C)C(=O)N[C@@H](CO)C(=O)N[C@@H](CC(C)C)C(=O)N[C@@H](CC(=O)O)C(=O)N[C@H](C(=O)N1CCC[C@H]1C(=O)N[C@H](C(=O)N[C@@H](CCCCN)C(=O)N[C@@H](CC(C)C)C(=O)N[C@@H](CCCCNC(=O)COCCOCCNC(=O)COCCOCCNC(=O)CC[C@H](NC(=O)CCCCCCCCCCCCCCCCC(=O)O)C(=O)O)C(=O)N[C@@H](CCC(N)=O)C(=O)N[C@H](C(=O)N[C@@H](CC(C)C)C(=O)N[C@@H](CC(C)C)C(=O)N[C@@H](CCCCN)C(=O)N[C@@H](CCC(N)=O)C(=O)N[C@@H](C)C(=O)N[C@@H](CCCNC(=N)N)C(=O)N[C@@H](CCC(N)=O)C(=O)N[C@@H](CCCCN)C(=O)NC(C)(C)C(=O)N[C@@H](CCC(N)=O)C(=O)N[C@@H](CCCNC(=N)N)C(=O)N[C@@H](C)C(=O)N[C@@H](CCC(N)=O)C(=O)N[C@@H](C)C(=O)N[C@@H](CCC(=O)O)C(=O)N[C@@H](CCCCN)C(=O)N[C@@H](CC(N)=O)C(=O)N[C@@H](CCCCN)C(=O)N[C@@H](CCCNC(=N)N)C(=O)N[C@H](C(=O)N[C@@H](CC(C)C)C(=O)N[C@@H](CCC(=O)O)C(=O)N[C@@H](CCCNC(=N)N)C(=O)N[C@H](C(N)=O)C(C)C)[C@@H](C)CC)[C@@H](C)CC)[C@@H](C)CC)C(C)C)C(C)C
B4: peptide of SEQ ID NO: 123 (peptide)
peptide: IVLSLDVPIKLK([AEEA-AEEA-γGlu-C18 diacid])QILLEQARQK[Aib]QRAQAEKNKRILERV-NH2
modifications: N-terminus assumed
SMILES: CC[C@H](C)[C@H](N)C(=O)N[C@H](C(=O)N[C@@H](CC(C)C)C(=O)N[C@@H](CO)C(=O)N[C@@H](CC(C)C)C(=O)N[C@@H](CC(=O)O)C(=O)N[C@H](C(=O)N1CCC[C@H]1C(=O)N[C@H](C(=O)N[C@@H](CCCCN)C(=O)N[C@@H](CC(C)C)C(=O)N[C@@H](CCCCNC(=O)COCCOCCNC(=O)COCCOCCNC(=O)CC[C@H](NC(=O)CCCCCCCCCCCCCCCCC(=O)O)C(=O)O)C(=O)N[C@@H](CCC(N)=O)C(=O)N[C@H](C(=O)N[C@@H](CC(C)C)C(=O)N[C@@H](CC(C)C)C(=O)N[C@@H](CCC(=O)O)C(=O)N[C@@H](CCC(N)=O)C(=O)N[C@@H](C)C(=O)N[C@@H](CCCNC(=N)N)C(=O)N[C@@H](CCC(N)=O)C(=O)N[C@@H](CCCCN)C(=O)NC(C)(C)C(=O)N[C@@H](CCC(N)=O)C(=O)N[C@@H](CCCNC(=N)N)C(=O)N[C@@H](C)C(=O)N[C@@H](CCC(N)=O)C(=O)N[C@@H](C)C(=O)N[C@@H](CCC(=O)O)C(=O)N[C@@H](CCCCN)C(=O)N[C@@H](CC(N)=O)C(=O)N[C@@H](CCCCN)C(=O)N[C@@H](CCCNC(=N)N)C(=O)N[C@H](C(=O)N[C@@H](CC(C)C)C(=O)N[C@@H](CCC(=O)O)C(=O)N[C@@H](CCCNC(=N)N)C(=O)N[C@H](C(N)=O)C(C)C)[C@@H](C)CC)[C@@H](C)CC)[C@@H](C)CC)C(C)C)C(C)C
B5: peptide of SEQ ID NO: 125 (peptide)
peptide: IVLSLDVPIKLK([AEEA-AEEA-γGlu-C18 diacid])QILLEQARQK[Aib]QREQAEKNKRILERV-NH2
modifications: N-terminus assumed
SMILES: CC[C@H](C)[C@H](N)C(=O)N[C@H](C(=O)N[C@@H](CC(C)C)C(=O)N[C@@H](CO)C(=O)N[C@@H](CC(C)C)C(=O)N[C@@H](CC(=O)O)C(=O)N[C@H](C(=O)N1CCC[C@H]1C(=O)N[C@H](C(=O)N[C@@H](CCCCN)C(=O)N[C@@H](CC(C)C)C(=O)N[C@@H](CCCCNC(=O)COCCOCCNC(=O)COCCOCCNC(=O)CC[C@H](NC(=O)CCCCCCCCCCCCCCCCC(=O)O)C(=O)O)C(=O)N[C@@H](CCC(N)=O)C(=O)N[C@H](C(=O)N[C@@H](CC(C)C)C(=O)N[C@@H](CC(C)C)C(=O)N[C@@H](CCC(=O)O)C(=O)N[C@@H](CCC(N)=O)C(=O)N[C@@H](C)C(=O)N[C@@H](CCCNC(=N)N)C(=O)N[C@@H](CCC(N)=O)C(=O)N[C@@H](CCCCN)C(=O)NC(C)(C)C(=O)N[C@@H](CCC(N)=O)C(=O)N[C@@H](CCCNC(=N)N)C(=O)N[C@@H](CCC(=O)O)C(=O)N[C@@H](CCC(N)=O)C(=O)N[C@@H](C)C(=O)N[C@@H](CCC(=O)O)C(=O)N[C@@H](CCCCN)C(=O)N[C@@H](CC(N)=O)C(=O)N[C@@H](CCCCN)C(=O)N[C@@H](CCCNC(=N)N)C(=O)N[C@H](C(=O)N[C@@H](CC(C)C)C(=O)N[C@@H](CCC(=O)O)C(=O)N[C@@H](CCCNC(=N)N)C(=O)N[C@H](C(N)=O)C(C)C)[C@@H](C)CC)[C@@H](C)CC)[C@@H](C)CC)C(C)C)C(C)C
B6: peptide of SEQ ID NO: 126 (peptide)
peptide: IVLSLD[dV]PIKLK([AEEA-AEEA-γGlu-C18 diacid])QILLEQAKQK[Aib]QRAQAEKNKRILERV-NH2
modifications: N-terminus assumed
SMILES: CC[C@H](C)[C@H](N)C(=O)N[C@H](C(=O)N[C@@H](CC(C)C)C(=O)N[C@@H](CO)C(=O)N[C@@H](CC(C)C)C(=O)N[C@@H](CC(=O)O)C(=O)N[C@@H](C(=O)N1CCC[C@H]1C(=O)N[C@H](C(=O)N[C@@H](CCCCN)C(=O)N[C@@H](CC(C)C)C(=O)N[C@@H](CCCCNC(=O)COCCOCCNC(=O)COCCOCCNC(=O)CC[C@H](NC(=O)CCCCCCCCCCCCCCCCC(=O)O)C(=O)O)C(=O)N[C@@H](CCC(N)=O)C(=O)N[C@H](C(=O)N[C@@H](CC(C)C)C(=O)N[C@@H](CC(C)C)C(=O)N[C@@H](CCC(=O)O)C(=O)N[C@@H](CCC(N)=O)C(=O)N[C@@H](C)C(=O)N[C@@H](CCCCN)C(=O)N[C@@H](CCC(N)=O)C(=O)N[C@@H](CCCCN)C(=O)NC(C)(C)C(=O)N[C@@H](CCC(N)=O)C(=O)N[C@@H](CCCNC(=N)N)C(=O)N[C@@H](C)C(=O)N[C@@H](CCC(N)=O)C(=O)N[C@@H](C)C(=O)N[C@@H](CCC(=O)O)C(=O)N[C@@H](CCCCN)C(=O)N[C@@H](CC(N)=O)C(=O)N[C@@H](CCCCN)C(=O)N[C@@H](CCCNC(=N)N)C(=O)N[C@H](C(=O)N[C@@H](CC(C)C)C(=O)N[C@@H](CCC(=O)O)C(=O)N[C@@H](CCCNC(=N)N)C(=O)N[C@H](C(N)=O)C(C)C)[C@@H](C)CC)[C@@H](C)CC)[C@@H](C)CC)C(C)C)C(C)C

Target: T1, CRF1R receptor (anti-target)
Experiment: cell-based or functional assay

EC50 [nM] 0% HSA (cAMP, HTRF) | Emax (%) (100% = Sauvagine at 100 nM) | Binder
> 100 nM | 6.9% | B1
> 100 nM | -1.1% | B2
> 100 nM | -2.5% | B3
> 100 nM | 9% | B4
> 100 nM | 17.7% | B5
> 100 nM | 36.5% | B6
